The nanobody polyreactivity screen of Harvey et al. (2022)

test: yeast display, Sf9 membrane polyspecificity reagent, FACS + sequencing; frameworks hold sequencing errors
In short: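 Sorting gates, low and high (top ~1%), were placed on anti-HA fluorescence to track expression and on streptavidin fluorescence to track reagent binding. A clone's polyreactivity label is taken from the gate it came out of. The reagent was 10% biotinylated, detergent-solubilized Sf9 membrane, applied for 1 hour at 4 °C to galactose-induced yeast display cells.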

**Q.** For “QVQLVESGGGLVQAGGSLRLSCAASGRNFGSYAMGWSRQAPGKERELVAGIRSVGSTNYADSVKGRFTISRDNAKNTVYLQMNSLKPEDTAVYYCAARLWHLSYAGQGGDYWGQGTQVTVSS”, which “polyreactivity (PSR sort gate)” value is on record?
**A.** The value was “low polyreactivity”.

**Q.** Which “polyreactivity (PSR sort gate)” value does the source give for “QVQLVESGGGLVQAGGSLRLSCAASGRNFHNYAMGWYRQATRKERELVAGISSRGGSTYYADSVKGRFTISRVNAKNTVYLQMNSLKPEVTAVYYCAKDKSPYGYATNQYRKYYYWGQGTQVTVSS” here?
**A.** Its value is “low polyreactivity”.

**Q.** Which “polyreactivity (PSR sort gate)” value does the source give for “QVQLVESGGGLVQAGGSLRLSCAASGRNFKQYAMGWYRQAHGKERELVAAISVRGGITYYADSVKGRFTISRDNAKNTVYLQMNSLKPEVTGVYYCAKRSYRTHTYDYWGQGTQVTVSS” here?
**A.** Its value is “low polyreactivity”.

**Q.** For “QVQLVESGGGLVQAGGSLRLSCAASGRNFLYNAMGWYRQAPGKERELVAAISGGSTNYADSVKGRFTISRDNAKNTVYLQMHSLKPEDTAVYYCAARYLRRYNWGQGTQVSVSS”, which “polyreactivity (PSR sort gate)” value is on record?
**A.** The value was “high polyreactivity”.

**Q.** Which “polyreactivity (PSR sort gate)” value does the source give for “QVQLVESGGGLVQAGGSLRLSCAASGRNFNQYGMGRYIPAPGKERELVAAIRSGDSTNYADSVKGRFTISRDNAKNTVYLQMNSLKPEDTAVYYCARDRPGDYAGYDYWGQGTQVNVSS” here?
**A.** The value was “low polyreactivity”.

**Q.** With “QVQLVESGGGLVQAGGSLRLSCAASGRNFNSYAMGWYRQAPGKERELVAAISWNGGSTYYADSVKGRFTISRDNAKITVYLQMNSLKPEDTAVYYCAATYLLRGDAYYSWGQGTQVTVSS” as the sequence, how does the “polyreactivity (PSR sort gate)” value read?
**A.** Its value is “high polyreactivity”.

**Q.** Which “polyreactivity (PSR sort gate)” value does the source give for “QVQLVESGGGLVQAGGSLRLSCAASGRNFPAYAMGWYRQAPGKERELVASIRRGGITYADSVKGRFTISRDNAKNTVYLQMNRLKPEDSSGYFCNADFRGWGYHMDYWGQGTQVTVSS” here?
**A.** The value was “low polyreactivity”.

**Q.** For “QVQLVESGGGLVQAGGSLRLSCAASGRNFPYYAMGWYRQAPGKEMELVAAITRGVRTHYADSVKGRFTISRDNAKNTVYLQMNSLKPEDTAVYYCAREDWGSYSDMDSWGQGTQVTVSS”, which “polyreactivity (PSR sort gate)” value is on record?
**A.** Its value is “low polyreactivity”.

**Q.** With “QVQLVESGGGLVQAGGSLRLSCAASGRNFPYYAMGWYRQAPGKERELVATISSGGITNYADSVKGRFTISRDNAKNTVYLELNSLKPEDTAVYYCAADRHWSAGLWRYDYWGQGTQVTVSS” as the sequence, how does the “polyreactivity (PSR sort gate)” value read?
**A.** Its value is “high polyreactivity”.

**Q.** Which “polyreactivity (PSR sort gate)” value does the source give for “QVQLVESGGGLVQAGGSLRLSCAASGRNFQVYAMGWYRQAPGKERELVAAISFSGDRTYYADSVKGRFTISRDNAKNTVYLQMNSLKPEDTAVYYCSADGFVYDLRARPGWVDYWGQGTQVTVSS” here?
**A.** Its value is “low polyreactivity”.

**Q.** Which “polyreactivity (PSR sort gate)” value does the source give for “QVQLVESGGGLVQAGGSLRLSCAASGRNFRSYAMGWYRQAPGKERELVAAIRRGGSTNYADSVKGRFTISRDNAKNTVYLQMNSLNPEDTAVYYCAARGWSYRSVGYMDYWGQGTQVTVSS” here?
**A.** Its value is “high polyreactivity”.

**Q.** With “QVQLVESGGGLVQAGGSLRLSCAASGRNFSDYAMGWSRQAPGKERELVATITSGDSTNYADSVKGRFTISRDNAKNTVYLQMNSLKPEDTAVYYCNADRFADYDYWGQGTQVTVSS” as the sequence, how does the “polyreactivity (PSR sort gate)” value read?
**A.** The value was “low polyreactivity”.

**Q.** For “QVQLVESGGGLVQAGGSLRLSCAASGRNFSLYAMGWYRQAPGKERELVAAISWSGGNTYYADSVKGRFTISRDNAKNTVYLQMNSLKPEDTAVYYCNTVSYRGDWNPSKYYYWGQGTQVTLSS”, which “polyreactivity (PSR sort gate)” value is on record?
**A.** Its value is “high polyreactivity”.

**Q.** With “QVQLVESGGGLVQAGGSLRLSCAASGRNFSWNAMGWYRQAPGKERELVAAISRGASTNYADSVKGRFTISRDNAKNTDYLQMNSLKPEDTAVYYCNAVGPSLIYTYELSPTFDYWGQGTQVTVSS” as the sequence, how does the “polyreactivity (PSR sort gate)” value read?
**A.** The value was “low polyreactivity”.

**Q.** With “QVQLVESGGGLVQAGGSLRLSCAASGRNFTSNTMGWYRQAPGTETELVAAITSSGGSMYYADSVKGRFTISRDNAKNTVYLQMNSLKPEDTAVYYCAADTIGYHYWYDYWGQGTQVTVSS” as the sequence, how does the “polyreactivity (PSR sort gate)” value read?
**A.** Its value is “low polyreactivity”.

**Q.** With “QVQLVESGGGLVQAGGSLRLSCAASGRNFWDYAMGWYRQAPGKERELVAGISYSGGSTSYADSVKGRFTISRDNAKNTVYLQMNSLKPEDTAVYYCAAGPSGTFFRDYDYWGQGTQVTVSS” as the sequence, how does the “polyreactivity (PSR sort gate)” value read?
**A.** The value was “low polyreactivity”.

**Q.** For “QVQLVESGGGLVQAGGSLRLSCAASGRNFYAYAMGWYRQAPGKERELVAGITYSGSSTYYADSVKGRFTISRDNAKNTVYLQMNSLKPEDTAVYYCAADLTRVLRYNYWGQGTQVTVSS”, which “polyreactivity (PSR sort gate)” value is on record?
**A.** The value was “low polyreactivity”.

**Q.** With “QVQLVESGGGLVQAGGSLRLSCAASGRNFYQYGMGWYREAPGKERELVAAISDSGGGTYYADSVKGRFTISGDNAKNTVYLQMNSLKPEDSAVYYCAATYVGPRRRYYYWGQGTQVTVSS” as the sequence, how does the “polyreactivity (PSR sort gate)” value read?
**A.** Its value is “high polyreactivity”.

**Q.** Which “polyreactivity (PSR sort gate)” value does the source give for “QVQLVESGGGLVQAGGSLRLSCAASGRNISYNAMGWSRQAPGKERELVAAISWGGGSTYYADSVKGRFTISRDNAKNTVYLQMNSLKPEDTAVYYCAKGWYRIKRNDYWGQGTQVTVSS” here?
**A.** The value was “low polyreactivity”.

**Q.** With “QVQLVESGGGLVQAGGSLRLSCAASGRNLGYNAMGWYRQAPGKERELVAAISWSGGSTYYADSVKGRFTISRDNAKNTVYLQMNSLKPEDTAVYYCAARNNRYPLYNYWGQGTQVTVSS” as the sequence, how does the “polyreactivity (PSR sort gate)” value read?
**A.** Its value is “low polyreactivity”.

**Q.** For “QVQLVESGGGLVQAGGSLRLSCAASGRNPMGWYRQAPGKDRELVASISRTGGSTYYADSVKGRFTISRDNAKNTDYLQMNSLKPEDTAVYYCNYFRRPPMYYWGQGTQVTVSS”, which “polyreactivity (PSR sort gate)” value is on record?
**A.** Its value is “high polyreactivity”.

**Q.** Which “polyreactivity (PSR sort gate)” value does the source give for “QVQLVESGGGLVQAGGSLRLSCAASGRPFDFYAMGLYRQAPGKERELVADISTGGSTYYADSVKGRFTISRDNAKNTVYLQMNSLKPEDTAVYYCAAVGQDYYKVRYYYWGQGTQVTVSS” here?
**A.** Its value is “low polyreactivity”.

**Q.** Which “polyreactivity (PSR sort gate)” value does the source give for “QVQLVESGGGLVQAGGSLRLSCAASGRPFHRNAMGWYRPAPGKERELVAAITGDGRTNYADSVKGRFTLSRDNAKNTVYLQMNSLKPEDTAFYYCAAEAVWFVGQAFDISDSTTYGFWGQGTQVTVSS” here?
**A.** The value was “low polyreactivity”.

**Q.** With “QVQLVESGGGLVQAGGSLRLSCAASGRPFSGYAMGWYRQAPGKERELVAAITSSGSSTYYADSVKGRFTISRDNAKNTVYLQMNSLKPEDTAVFYCAATPQAHSERYYYQRKYDYWGQGTQVTVSS” as the sequence, how does the “polyreactivity (PSR sort gate)” value read?
**A.** Its value is “low polyreactivity”.

**Q.** For “QVQLVESGGGLVQAGGSLRLSCAASGRPFTWYALGWYRQAPGKEREVVAAISKSGGSTYYADSVKGRFTISRDNAKNTVYLQMNSLKPEDTAVYYCNADFYGYFLGYGYCGQGTQVTVSS”, which “polyreactivity (PSR sort gate)” value is on record?
**A.** The value was “low polyreactivity”.

**Q.** Which “polyreactivity (PSR sort gate)” value does the source give for “QVQLVESGGGLVQAGGSLRLSCAASGRSFSRNAMGWYRQAPGTERELVAGISSGGSTNYADSVKGRFTISPDTAKNTVYIQMNSLKPEDTAVYYCAKDSAEFVTRYDYWGQGTQVTLSS” here?
**A.** The value was “low polyreactivity”.

**Q.** With “QVQLVESGGGLVQAGGSLRLSCAASGRSFYGYAMGWYRQAPGKERELVARISGGGRTYYADSVKGRFTISRDNAKNTVYLQMNSLNPEDTAVYYCAAVYRSTWYGFTGSVGTFDYWGQGTQVTVSS” as the sequence, how does the “polyreactivity (PSR sort gate)” value read?
**A.** Its value is “high polyreactivity”.

**Q.** Which “polyreactivity (PSR sort gate)” value does the source give for “QVQLVESGGGLVQAGGSLRLSCAASGRSFYTNAMGWYRPAPGKERELLAAIRRSGTSTYYADSVKGRFTISRDNAYNTVYLQMNSLKPEDTAVYYCAALRSLLYRTYGYWGLGTQVTVSS” here?
**A.** The value was “low polyreactivity”.

**Q.** With “QVQLVESGGGLVQAGGSLRLSCAASGRSYRRNTMGWYRQAPGKERELVAAISNRGTSTYYADSVKGRFTISRDNEKNTVYLLMNSLKPEDTAVYYCAARGVRSYFFPYNYWGQGTQVTVSS” as the sequence, how does the “polyreactivity (PSR sort gate)” value read?
**A.** Its value is “high polyreactivity”.

**Q.** Which “polyreactivity (PSR sort gate)” value does the source give for “QVQLVESGGGLVQAGGSLRLSCAASGRTCSNYAMGWYRQAPGKERELVAAISYSVGSTYYADSVKGRFTIARDNAKNTVYLQMNSLKPEDTAVYYCNAKSRPHYAWYRYDYWGQGTQVTVSS” here?
**A.** The value was “high polyreactivity”.
